Target: GST-tagged ANKRD1 recombinant protein (Homo sapiens (Human), UniProt Q15327)
Assay: GST pulldown with western blot

GST-tagged ANKRD1 recombinant protein, sequence (Q15327 whole entry): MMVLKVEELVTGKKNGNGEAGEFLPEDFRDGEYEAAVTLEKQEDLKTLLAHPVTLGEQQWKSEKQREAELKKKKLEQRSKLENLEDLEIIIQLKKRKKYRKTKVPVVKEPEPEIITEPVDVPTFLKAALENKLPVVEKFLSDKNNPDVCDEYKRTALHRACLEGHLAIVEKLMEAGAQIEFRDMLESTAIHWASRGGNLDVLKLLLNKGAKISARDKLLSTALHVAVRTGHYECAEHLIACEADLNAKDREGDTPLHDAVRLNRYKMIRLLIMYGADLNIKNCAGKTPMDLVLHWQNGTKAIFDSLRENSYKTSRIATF

- binding result: no binding
B1: HIS-tagged JUN (truncated form 1-241aa) (protein)
chain: MTAKMETTFYDDALNASFLPSESGPYGYSNPKILKQSMTLNLADPVGSLKPHLRAKNSDLLTSPDVGLLKLASPELERLIIQSSNGHITTTPTPTQFLCPKNVTDEQEGFAEGFVRALAELHSQNTLPSVTSAAQPVNGAGMVAPAVASVAGGSGSGGFSASLHSEPPVYANLSNFNPGALSSGGGAPSYGAAGLAFPAQPQQQQQPPHHLPQQMPVQHPRLQALKEEPQTVPEMPGETPP
